Publication PMC9296572, “An Unusual Oxidative Rearrangement Catalyzed by a Divergent Member of the 2‐Oxoglutarate‐Dependent Dioxygenase Superfamily during Biosynthesis of Dehydrofosmidomycin” (Angewandte Chemie (International Ed. in English), 2022)

Test system: C[N+](C)(C)CCP(=O)([O-])O
Assay: O2 consumption, Clark-type electrode, initial rates in first minute
Type: biochemical, Streptomyces lavendulae
Conditions: apparent; co-substrates 2-oxoglutarate and O2, Fe(II); two-turnover enzyme, value assumed to pertain to the desaturation to TMAVP

## DfmD (Streptomyces lavendulae)
  Km: 160 µM
  kcat: 0.04 s⁻¹
